{"source": "paper PMC6179184", "about": "“Interaction of the Warsaw breakage syndrome DNA helicase DDX11 with the replication fork-protection factor Timeless promotes sister chromatid cohesion” (PLoS Genetics, 2018)", "binders": {"B1": {"name": "DDX11-3xFlag wild type (enzyme, human, UniProt Q96FC9-2 1-906, looked up)", "chain": "MANETQKVGAIHFPFPFTPYSIQEDFMAELYRVLEAGKIGIFESPTGTGKSLSLICGALSWLRDFEQKKREEEARLLETGTGPLHDEKDESLCLSSSCEGAAGTPRPAGEPAWVTQFVQKKEERDLVDRLKAEQARRKQREERLQQLQHRVQLKYAAKRLRQEEEERENLLRLSREMLETGPEAERLEQLESGEEELVLAEYESDEEKKVASRVDEDEDDLEEEHITKIYYCSRTHSQLAQFVHEVKKSPFGKDVRLVSLGSRQNLCVNEDVKSLGSVQLINDRCVDMQRSRHEKKKGAEEEKPKRRRQEKQAACPFYNHEQMGLLRDEALAEVKDMEQLLALGKEARACPYYGSRLAIPAAQLVVLPYQMLLHAATRQAAGIRLQDQVVIIDEAHNLIDTITGMHSVEVSGSQLCQAHSQLLQYVERYGKRLKAKNLMYLKQILYLLEKFVAVLGGNIKQNPNTQSLSQTGTELKTINDFLFQSQIDNINLFKVQRYCEKSMISRKLFGFTERYGAVFSSREQPKLAGFQQFLQSLQPRTTEALAAPADESQASTLRPASPLMHIQGFLAALTTANQDGRVILSRQGSLSQSTLKFLLLNPAVHFAQVVKECRAVVIAGGTMQPVSDFRQQLLACAGVEAERVVEFSCGHVIPPDNILPLVICSGISNQPLEFTFQKRELPQMMDEVGRILCNLCGVVPGGVVCFFPSYEYLRQVHAHWEKGGLLGRLAARKKIFQEPKSAHQVEQVLLAYSRCIQACGQERGQVTGALLLSVVGGKMSEGINFSDNLGRCVVMVGMPFPNIRSAELQEKMAYLDQTLPRAPGQAPPGKALVENLCMKAVNQSIGRAIRHQKDFASVVLLDQRYARPPVLAKLPAWIRARVEVKATFGPAIAAVQKFHREKSASS", "notes": "DDX11 (ChlR1), human, full-length protein of 906 residues (1-906); also called Flag-tagged wild type (WT) DDX11; ChlR1; source: HEK 293T, transiently transfected (pcDNA 3.0); purified, and in whole cell extract; not shown: 3xFlag, C-terminal, kept"}, "B2": {"name": "DDX11 Peptide # 32 (peptide)", "peptide": "EQLESGEEELVLAEY", "notes": "15-residue peptide of human DDX11 (906-residue protein), in Region T (65-225); its two C-terminal residues are Glu201 and Tyr202 of full-length DDX11; source: synthetic peptide, printed on a PEPperCHIP microarray (PEPperPRINT)"}}, "key": {"[1]": {"biological_target": "T1, recombinant human Flag-Timeless (human, UniProt Q9UNS1 1-1208)", "T1 construct": "Timeless, human, component of the replication fork-protection complex; also called Flag-tagged Timeless; source: insect cells infected with a recombinant baculovirus (Sf9), purified", "T1 sequence (looked up)": "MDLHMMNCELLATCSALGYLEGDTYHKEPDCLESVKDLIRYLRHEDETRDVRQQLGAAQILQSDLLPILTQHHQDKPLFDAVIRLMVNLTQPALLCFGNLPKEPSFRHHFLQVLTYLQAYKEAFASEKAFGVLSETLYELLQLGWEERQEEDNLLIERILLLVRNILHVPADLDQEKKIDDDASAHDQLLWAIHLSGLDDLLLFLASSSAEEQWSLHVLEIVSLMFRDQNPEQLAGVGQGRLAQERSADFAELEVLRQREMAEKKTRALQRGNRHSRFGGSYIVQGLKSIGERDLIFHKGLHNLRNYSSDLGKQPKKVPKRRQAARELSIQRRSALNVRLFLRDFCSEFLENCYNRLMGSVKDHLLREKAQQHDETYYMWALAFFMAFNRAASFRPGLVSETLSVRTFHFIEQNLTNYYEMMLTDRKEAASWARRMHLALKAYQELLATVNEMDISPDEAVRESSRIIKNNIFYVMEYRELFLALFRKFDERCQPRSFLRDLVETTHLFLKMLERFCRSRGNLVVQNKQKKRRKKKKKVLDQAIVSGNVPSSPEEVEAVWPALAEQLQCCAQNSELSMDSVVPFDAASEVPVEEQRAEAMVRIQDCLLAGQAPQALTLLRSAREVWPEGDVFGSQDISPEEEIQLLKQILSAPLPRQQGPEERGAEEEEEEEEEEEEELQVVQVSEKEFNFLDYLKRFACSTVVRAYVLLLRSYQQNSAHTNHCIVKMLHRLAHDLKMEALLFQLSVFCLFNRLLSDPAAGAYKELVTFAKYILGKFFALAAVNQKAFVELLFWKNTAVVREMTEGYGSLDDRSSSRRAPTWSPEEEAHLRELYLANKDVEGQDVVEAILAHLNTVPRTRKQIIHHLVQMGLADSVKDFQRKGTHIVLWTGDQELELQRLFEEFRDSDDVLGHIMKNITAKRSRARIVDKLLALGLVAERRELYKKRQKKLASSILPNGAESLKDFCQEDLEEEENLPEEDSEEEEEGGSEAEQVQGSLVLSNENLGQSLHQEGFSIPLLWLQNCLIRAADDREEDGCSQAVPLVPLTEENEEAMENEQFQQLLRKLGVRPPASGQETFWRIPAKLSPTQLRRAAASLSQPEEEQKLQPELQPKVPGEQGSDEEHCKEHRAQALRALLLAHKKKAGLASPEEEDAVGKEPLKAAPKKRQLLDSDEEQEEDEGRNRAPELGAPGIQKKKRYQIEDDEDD", "test": "pull-down; mixtures of purified recombinant proteins (Timeless 0.8 ug or cohesin 1 ug, DDX11 0.5 ug, 200 uL) with anti-DDX11 antibody on Protein A beads; 25 mM Tris-HCl pH 7.5, 150 mM NaCl, 2 mM MgCl2, 1 mM DTT, 5% glycerol, 2 hr at 4 C; washes with 300 mM NaCl, 0.25% Triton X-100; immuno-blot", "details": "both partners purified"}, "[2]": {"biological_target": "T1, recombinant human Flag-Timeless", "test": "peptide or protein array; PEPperCHIP microarrays of 15-residue DDX11 peptides on glass slides (tiling array, 13-residue overlap; full substitution scan of peptide # 32); Flag-Timeless at 50 ug/mL in PBS, 0.05% Tween 20, 1% BSA for 16 hr; detected with Cy3-labelled anti-Flag antibody; control array without Flag-Timeless", "details": "both partners purified"}}, "data": [{"binder": "B1", "values": [{"measurement": "binding result", "setting": "[1]", "value": "binds"}]}, {"binder": "B2", "values": [{"measurement": "binding result", "setting": "[2]", "value": "binds"}]}]}
